Measured values published in paper PMC11512059 (Nature Communications, 2024).

B1: human connexin 36 Ala14 deletion variant gap junction channel in lipid nanodiscs containing brain lipids (Cx36_(Nano-BL)-∆A14) (natural protein, UniProt Q9UKL4 1-321, looked up)
chain: MGEWTILERLLEAVQQHSTMIGRILLTVVVIFRILIVAIVGETVYDDEQTMFVCNTLQPGCNQACYDRAFPISHIRYWVFQIIMVCTPSLCFITYSVHQSAKQRERRYSTVFLALDRDPPESIGGPGGTGGGGSGGGKREDKKLQNAIVNGVLQNTENTSKETEPDCLEVKELTPHPSGLRTASKSKLRRQEGISRFYIIQVVFRNALEIGFLVGQYFLYGFSVPGLYECNRYPCIKEVECYVSRPTEKTVFLVFMFAVSGICVVLNLAELNHLGWRKIKLAVRGAQAKRKSIYEIRNKDLPRVSVPNFGRTQSSDSAYV
B2: human connexin 36 gap junction channel, wild type, in lipid nanodiscs containing brain lipids (Cx36_(Nano-BL)-WT) (natural protein, UniProt Q9UKL4 1-321, looked up)
chain: MGEWTILERLLEAAVQQHSTMIGRILLTVVVIFRILIVAIVGETVYDDEQTMFVCNTLQPGCNQACYDRAFPISHIRYWVFQIIMVCTPSLCFITYSVHQSAKQRERRYSTVFLALDRDPPESIGGPGGTGGGGSGGGKREDKKLQNAIVNGVLQNTENTSKETEPDCLEVKELTPHPSGLRTASKSKLRRQEGISRFYIIQVVFRNALEIGFLVGQYFLYGFSVPGLYECNRYPCIKEVECYVSRPTEKTVFLVFMFAVSGICVVLNLAELNHLGWRKIKLAVRGAQAKRKSIYEIRNKDLPRVSVPNFGRTQSSDSAYV

Biological target: the molecule itself
Assay: cryo-EM structure

Protein | binding result
B1 | binds
B2 | binds
